Data: the supplement of paper PMC10567573

B1: LOC100129726 (parent)
chain: AKAADSPTRNDLESGLGHFSLRVH

Variants of: B1
Test: protein stability index of a GFP-peptide fusion (GPS, HEK-293T) (PSI 1-6); higher = more stable
Conditions: c terminus: a fixed tail appended
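Also: lentivirally expressed fusions sorted by FACS into six bins by GFP to DsRed ratio, PSI derived from sequencing read proportions per bin multiplied by bin number.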

Protein stability index of substitutions, site by site:
H18: K 3.15 | D 4.08 | M 2.29 | W 1.59 | I 3.13 | G 3.84 | F 2.1 | Q 3.44 | L 2.38 | Y 2.66 | P 3.04 | E 3.45
R9: N 3.51 | S 3.25 | K 4.17 | I 2.37 | Q 3.22 | W 1.86 | C 3.04 | M 3.46 | G 3.84 | T 3.09 | A 3.47 | Y 2.7
L21: R 2.98 | M 3.6 | T 4.08 | Q 4 | P 4.25 | A 4.25 | N 4.3 | D 5.01 | K 3.5 | Y 3.06 | E 4.38 | I 2.33 | C 4.2
S6: A 2.45 | H 2.95 | R 3.08 | F 2.74 | P 3.16 | D 3.44 | Q 3.76 | E 3.5 | L 2.16 | Y 2.26 | I 2.53
F19: G 4.32 | R 4.28 | H 3.67 | A 3.95 | D 4.6 | Q 4.33 | Y 3.16 | K 4.63 | S 4.61
N10: L 2.88 | H 3.53 | I 1.78 | Q 3.87 | F 2.38 | K 2.98 | P 4 | R 3.17 | Y 1.97
S20: Q 3.17 | P 3.81 | I 1.48 | V 2.21 | A 3.29 | T 3.1 | F 2.05 | W 2.25 | D 3.46 | L 2.09
P7: V 2.7 | D 3.64 | M 2.57 | H 3.45 | Y 2.18 | W 1.65 | K 2.92 | R 3.56 | C 2.16 | E 3.28 | F 2.33 | T 3.2 | A 3.49
V23: D 4.68 | Y 2.61 | M 3.29 | N 3.43 | P 4.13 | K 4.43 | E 4.69 | G 4.16 | A 3.67 | I 2.42 | S 3.48 | L 2.88
R22: P 4 | V 2.71 | Q 2.73 | T 2.8 | Y 2.31 | F 2.43 | N 3.62 | M 2.61 | H 3.25
S14: K 3.36 | Q 2.94 | Y 3.97 | H 3.21 | V 2.63 | W 1.36 | T 2.94
T8: R 2.53 | L 2.13 | S 2.74 | I 2.45 | D 3.31 | K 2.73 | A 2.95 | C 2.07 | H 2.63 | G 3.61 | V 4.01 | W 1.98
D11: I 1.96 | S 2.64 | A 3.1 | G 2.33 | V 2.21 | C 2.91 | L 1.9 | K 2.72 | H 2.42 | E 3.9
L16: E 4.23 | W 2.74 | Q 3.28 | V 2.38 | S 3.77 | K 3.89 | D 3.82 | T 3.8
G17: M 2.27 | P 3.06 | I 2.28 | E 3.58 | C 2.85 | W 2.96 | T 2.56 | N 3.18 | S 2.84
A1: W 2.33 | M 2.74 | P 3.17 | N 3.25 | F 2.6 | E 3.47 | L 2.9 | R 2.74 | H 3.27
D5: E 3.16 | K 3.19 | R 2.67 | Q 3.15 | I 2.65 | M 3.06 | L 2.56 | W 2.14 | V 2.54 | P 2.48
L12: Q 4.45 | T 2.91 | G 3.52 | W 2.6 | K 3.92 | C 2.82 | Y 1.93 | N 4.16 | A 3.47 | D 3.9 | F 3.06 | M 3.78 | E 4
A4: I 2.98 | H 3.36 | V 2.4 | C 3.05 | R 2.81 | S 3.1
G15: Y 2.4 | T 2.67 | I 1.86 | R 2.06 | L 2.37 | D 3.51 | S 2.86 | H 3.26 | F 1.74 | W 1.57 | A 2.4
K2: S 2.99 | A 3.68 | E 3.98 | I 3.21 | T 3.27 | W 1.66 | Q 2.69 | G 2.71 | D 3.55 | L 3.03
H24: T 3.41 | S 3.6 | L 2.59 | D 3.63 | C 2.49 | Q 3.53 | F 2.32 | N 4.15 | P 3.73 | Y 1.58 | R 2.79 | I 1.9
E13: V 2.52 | A 2.26 | R 2.38 | W 1.85 | D 2.95 | Y 1.38 | H 2.74 | Q 2.3 | T 2.59 | I 2.32 | M 2.15
A3: C 2.73 | I 2.69 | Q 3.03 | W 2.21 | Y 2.26 | H 3 | G 3.42
